# Test results taken from patent publication US20200199647A1 (published 2020).
# Experiments:
# [1] = target: T1, PP1c (human PP1cα amino acids 7-330, N-terminal Thio6/His6 tag) (human, UniProt P62136 7-330); test: thermophoresis, labelled PP1c, unlabelled fragment titrated
# T1 construct: range 7-330; Recombinant, from E. coli with GroEL/GroES and MnCl2; In thermophoresis it was labelled with the Monolith NT Red-NHS kit; also called protein phosphatase 1c; Thio6/His6-PP1c
# [2] = target: T1, PP1c (human PP1cα amino acids 7-330, …); test: thermophoresis (MST), labelled PP1c
# T1 sequence (P62136 other isoform, or with tags, fused parts or gaps): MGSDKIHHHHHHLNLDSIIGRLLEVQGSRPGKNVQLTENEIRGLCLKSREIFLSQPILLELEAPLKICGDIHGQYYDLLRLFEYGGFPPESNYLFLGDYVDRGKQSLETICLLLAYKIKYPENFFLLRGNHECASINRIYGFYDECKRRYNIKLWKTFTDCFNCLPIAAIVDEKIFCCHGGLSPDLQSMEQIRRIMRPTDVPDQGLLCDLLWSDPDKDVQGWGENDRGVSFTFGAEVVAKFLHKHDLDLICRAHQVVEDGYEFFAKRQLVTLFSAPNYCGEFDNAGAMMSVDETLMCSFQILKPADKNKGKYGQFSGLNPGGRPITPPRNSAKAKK
binding result [1],binding result [2],Binder
no binding,,"R15B^N (human PPP1R15B amino acids 340-635, N-terminal MBP-tag, C-terminal His6-tag) (other, not shown: large carriers, range 340-635; also called R15B^340-635; amino-terminal fragment of R15B) RDNPTQFVPAAGDIPGNTQESTEEKIELLTTEVPLALEEESPSEGCPSSEIPMEKEPGEGRISVVDYSYLEGDLPISARPACSNKLIDYILGGASSDLETSSDPEGEDWDEEAEDDGFDSDSSLSDSDLEQDPEGLHLWNSFCSVDPYNPQNFTATIQTAARIVPEEPSDSEKDLSGKSDLENSSQSGSLPETPEHSSGEEDDWESSADEAESLKLWNSFCNSDDPYNPLNFKAPFQTSGENEKGCRDSKTPSESIVAISECHTLLSCKVQLLGSQESECPDSVQRDVLSGGRHTHHHHHHH"
,binds,"R15B^C (human PPP1R15B amino acids 636-698, N-terminal MBP-tag, C-terminal His6-tag) (other, not shown: large carriers, range 636-698; also called R15B^636-698; carboxy-terminal fragment of R15B) VKRKKVTFLEEVTEYYISGDEDRKGPWEEFARDGCRFQKRIQETEDAIGYCLTFEHRERMFNRHHHHHH"
